Article doi:10.1101/2023.10.13.562161

Target: VanX^C78/157S
Experiment: SEC

In the case of VanX^C78/157S (enzyme), the stoichiometry N is reported as 2.
